Data on three substances can be found in patent US7935343B2.

The target of test [1] is human IL-13 (human).
Test [2] addresses native human IL-13 released from HDLM-2 cells (human).
For test [3], the target named is human IL-13 (human). The source holds these as a separate data set.
For test [4], the target named is human IL-13 variant (Q130R) with carboxyl terminus affinity tag (baculovirus expression) (human).
Test [5] has as its target non-human primate IL-13 (rhesus and cynomolgus, identical) with carboxyl terminus affinity tag (cynomolgus and rhesus monkey).

Chain of human IL-13 variant (Q130R) with carboxyl terminus affinity tag (baculovirus expression) (human) (chain, as listed by the source Q130R Q130R): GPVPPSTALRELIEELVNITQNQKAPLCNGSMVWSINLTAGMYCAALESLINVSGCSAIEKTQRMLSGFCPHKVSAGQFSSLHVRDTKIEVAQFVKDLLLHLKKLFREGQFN
Chain of non-human primate IL-13 (rhesus and cynomolgus, identical) with carboxyl terminus affinity tag (cynomolgus and rhesus monkey) (chain, as listed by the source): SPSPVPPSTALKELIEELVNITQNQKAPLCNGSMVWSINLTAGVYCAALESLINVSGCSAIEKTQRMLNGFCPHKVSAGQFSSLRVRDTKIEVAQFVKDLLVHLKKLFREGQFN

In test [1], “B-B13 (mouse IgG1, Euroclone) (antibody)” came in with an IC50, TF-1 proliferation of 1.02 nM. Further, the IC50, HDLM-2 cell proliferation in test [2] is 16.7 nM. In test [3], this substance showed an IC50, eotaxin release from NHLF of 0.219 nM.
With BAK502G9 IgG4 (antibody), the IC50, TF-1 cell proliferation in test [4] was found to be 1.9 nM; in test [5], 2 nM.
The substance “JES10-5A2 (rat IgG1, Biosource) (antibody)” gave an IC50, TF-1 proliferation in test [1] of 0.471 nM. Moreover, the IC50, HDLM-2 cell proliferation in test [2] was determined as 10.7 nM. The IC50, eotaxin release from NHLF in test [3] amounted to 0.623 nM.
